Results on four substances are retold here after US10668186B2, “Quenched coating” (Original G B.V., priority 2014, dated 2020).

For assay [1], the system named is S. aureus. Kind of assay: Coated catheter S. aureus challenge, near infrared fluorescence imaging. The note with it: for Coating response to S. aureus challenge: coated Foley silicone catheter, 2×10^6 CFU ml^−1 S. aureus, 4 hours, excitation 710 nm, emission 800 nm; for detection of S. aureus (in words): coated catheter, S. aureus challenge. The assay is classed as cell-based. The procedure:
The catheter used was a 14F silicone Foley Catheter which was provided in 6 mm lengths and having a diameter of 4.2 mm. An aqueous slurry of each polymer coating was prepared and each piece of catheter plunged into the slurry mixture. The coated catheters were stored at 20° C. in the dark for 15 minutes prior to repeating the dipping procedure. The process was repeated four times in total. After the final coating, the coated catheters were stored at 35° C. for 48 hours to facilitate drying of the coating. Each coated catheter and one none coated catheter as control, were incubated in the presence of 2×10^6 colony-forming units (CFU) ml^−1 of S. auereus for 4 hours. […] The results obtained from the IVIS Spectrum and IVIS Lumina II were analyzed with Living Image 4.2. (Caliper L S, Hopkinton Mass., USA). Optimal detection limits were set to the lowest signal at which positive signal was effortlessly discriminated from negative controls. Signal intensity was determined by drawing regions of interests (ROI's) and measuring average counts in these regions. The signal was corrected for background by subtracting the background signal from the signal of interest, referred to in the text as net counts. A strong near infrared signal was, attributed to the first fluorescent agent.

In assay [2] the target is V8 protease (Endoproteinase Glu-C from Staphylococcus aureus V8) (Staphylococcus aureus, UniProt P0C1U8). The following applies: in solution, excitation 720 nm. The procedure:
Bacterial protease was obtained from Sigma-Aldrich (Endoproteinase Glu-C from Staphylococcus aureus V8, P2922 SIGMA), also named ‘protease V8’ or ‘V8’ in this document.
The cleavage of peptide 1 in the presence of V8 protease and GranzymB protease was monitored in solution by luminescence spectroscopy. Photo-luminescence spectra were measured on a Perkin-Elmer Luminescence Spectrometer LS50 B. Spectra were recorded from 250 to 900 nm, using an excitation wavelength of 720 nm and applying a slit width of 15 nm.
The digestion in solution was performed in a glass vial. 100 μL of stock solution of peptide 1 (10 mg/mL) was diluted with 625 μL H2O and 250 μL 100 mM phosphate buffer solution (pH=7.8). A sample of 10 μL was taken at t=0. Then, 50 μL of V8 or Granzyme B protease stock solution (25 units, ±25 μg) was added, the mixture shaken and was kept at room temperature. […] At various time points (30 s, 2, 5, 10, 15, 20, 25, 30, 40, 50, 60, 90, 120, 150 and 180 min., and at 18H) a 10 μL incubate sample was taken and was diluted with 3 mL of water. The prepared diluted samples were measured by luminescence spectroscopy, so as to monitor the digestive cleavage of peptide 1. As blanks, cuvettes with water and the same amount of DMSO as the sample solution were used.

Assay [3] concerns the target T1, Granzyme B, Human, Recombinant (Homo sapiens, UniProt P10144).
T1 construct: purchased MerckMillepore 368043; host or cells: E. coli
Kind of assay: Digestion of peptide 1 in solution monitored by luminescence spectroscopy (Granzyme B). The assay is classed as biochemical. The following applies: presence of Granzyme B. The text has this:
Human recombinant protease was obtained from MerckMillepore (368043 Granzyme B, Human, Recombinant, E. coli).

The target of assay [4] is V8 protease (Staphylococcus aureus, UniProt P0C1U8). The note with it: surface bound, Odyssey CLX, exciting at 800 nm. The procedure:
The resulting solution (50 μL) was pipetted onto the glass slide, and the slide was kept in a humidified environment for 1H. The droplet was washed off by rinsing 3× with 1 mL DMSO:H2O 80/20; thereafter, the slide was placed in a washing solution of DMSO:H2O 80/20 and was gently agitated for 1 minute. The washing solution was rinsed off with water (5×1 mL) and the slide was dried by a flow of nitrogen.
Li-Cor Odyssey CLX equipment was used on site at Westburg (Leusden, N L; Timo Kreike, Moniek Kors). All Odyssey CLX measurements were taken by exciting at 800 nm.

Like-named read-outs stand apart in the source and are kept apart here. Primed or numbered codes have the meaning given here. Where no end group is shown, it is not given here. code X = (S)-5-azido-2-(Fmoc-amino)pentanoic acid (δ-azido-L-norvaline); Orn(N3) = [N-]=[N+]=NCCC[C@H](N)C(=O)O; IRDye800CW′ = not defined here; IRDyeQC‑1 = quencher label; IRDye800RS = dye label; Pol = MeO-PEG-alkyne

Chain of V8 protease (Endoproteinase Glu-C from Staphylococcus aureus V8) (P0C1U8 69-336): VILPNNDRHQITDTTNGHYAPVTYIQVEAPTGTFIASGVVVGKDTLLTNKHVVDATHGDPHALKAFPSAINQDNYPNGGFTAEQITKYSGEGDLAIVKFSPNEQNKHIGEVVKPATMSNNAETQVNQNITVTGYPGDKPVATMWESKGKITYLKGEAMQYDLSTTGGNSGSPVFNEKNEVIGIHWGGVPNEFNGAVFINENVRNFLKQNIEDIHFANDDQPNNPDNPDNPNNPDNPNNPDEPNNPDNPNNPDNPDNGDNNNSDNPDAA
T1 sequence (P10144 21-247): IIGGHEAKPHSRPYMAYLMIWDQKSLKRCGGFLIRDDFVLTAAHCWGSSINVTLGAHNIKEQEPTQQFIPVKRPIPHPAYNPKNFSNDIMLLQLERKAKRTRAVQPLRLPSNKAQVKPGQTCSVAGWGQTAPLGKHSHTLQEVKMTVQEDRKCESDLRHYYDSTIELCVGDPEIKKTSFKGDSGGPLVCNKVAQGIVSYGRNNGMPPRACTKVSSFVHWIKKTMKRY
Chain of V8 protease (P0C1U8 69-336): as the sequence (P0C1U8 69-336) above

For “(IRDye800RS)-KG-(Pol)-X-LLEFRIVAK(IRDye800RS) ({IRDye800RS-Lys-Gly-Pol-code X}-LLEFRIVAK(IRDye800RS); also: MeO-PEG) [Example 5.3]”, in assay [1], the “Coating response to S. aureus challenge” value is listed as “+” and the “detection of S. aureus (in words)” value is given as “only a weak signal is detected”.
On to “Ac-(IRDye800CW)CG-(Pol)-X-LLEFRIVAK(IRDyeQC-1) ({Ac-Cys(IRDye800CW)-Gly-Pol-code X}-LLEFRIVAK(IRDyeQC‑1); also: MeO-PEG) [Example 5.4]”, for which, in assay [1], the “Coating response to S. aureus challenge” value is given as “++” and the “detection of S. aureus (in words)” value is given as “very good detection”.
As to “Ac-X-[K(IRDye800RS)]-GLLEFRIVAK(IRDye800RS)-amide ({Ac-Orn(N3)-K(IRDye800RS)}-GLLEFRIVAK(IRDye800RS)-NH2) [Peptide 1]”, the background fluorescence result in assay [2] (absence of V8 protease) is “around 1 AU”; in assay [3] (maintained throughout the experiment), 1 AU. In addition, the fluorescence intensity in assay [2] (after 30 s of adding V8 protease) is 4 AU; in assay [2] (within 6 minutes of adding V8 protease), 6 AU. For the same substance, in assay [3], the “cleavage by Granzyme B” value is given as “not cut”. The results for the intensity result in assay [4] (before V8 protease) and in assay [4] (in the presence of V8 protease) were “circa 6000 units” and 25000 units, respectively.
Consider “G-(Pol)-X-LLEFRIVAC-IRDye800CW (LLEFRIVAC-{IRDye800CW′}; not fully specified (residue 9, N-terminus); also: MeO-PEG) [Example 5.2, comparative, no non-fluorescent agent, reference compound]”, for which, in assay [1], the “Coating response to S. aureus challenge” value was “−” and the “detection of S. aureus (in words)” value is recorded as “only a small change in intensity in emitted light is detected”.
